In patent publication US20110098212A1:
Read-outs that look alike come from different tables or passages of the source.

What was measured:
[1] = target: human chemokine receptor CCR5 (human), P51681; test: competition binding against 166 pM 125I-CCL3 on human PBMCs
[2] = target: human chemokine receptor CCR5 (human), P51681
[3] = target: T1, chemokine receptor CCR1 (human), P32246; test: cell-based or functional assay
T1 chain: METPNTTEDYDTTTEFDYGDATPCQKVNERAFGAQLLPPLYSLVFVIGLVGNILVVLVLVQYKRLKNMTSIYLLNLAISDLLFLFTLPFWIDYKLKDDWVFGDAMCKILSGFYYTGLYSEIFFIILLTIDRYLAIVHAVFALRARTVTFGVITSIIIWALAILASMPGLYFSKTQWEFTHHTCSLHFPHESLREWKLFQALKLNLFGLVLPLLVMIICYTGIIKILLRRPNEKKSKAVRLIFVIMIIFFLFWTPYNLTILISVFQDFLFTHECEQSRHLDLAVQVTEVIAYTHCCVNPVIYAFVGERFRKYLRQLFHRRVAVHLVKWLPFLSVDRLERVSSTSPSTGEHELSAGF

[4] = target: human chemokine receptor CCR5 (human), P51681; test: cell-based or functional assay
[5] = target: chemokine receptor CCR4 (human) (UniProt P51679); test: cell-based or functional assay
[6] = target: chemokine receptor CCR8 (human) (UniProt P51685); test: cell-based or functional assay
Chain of chemokine receptor CCR8 (human) (P51685 whole entry): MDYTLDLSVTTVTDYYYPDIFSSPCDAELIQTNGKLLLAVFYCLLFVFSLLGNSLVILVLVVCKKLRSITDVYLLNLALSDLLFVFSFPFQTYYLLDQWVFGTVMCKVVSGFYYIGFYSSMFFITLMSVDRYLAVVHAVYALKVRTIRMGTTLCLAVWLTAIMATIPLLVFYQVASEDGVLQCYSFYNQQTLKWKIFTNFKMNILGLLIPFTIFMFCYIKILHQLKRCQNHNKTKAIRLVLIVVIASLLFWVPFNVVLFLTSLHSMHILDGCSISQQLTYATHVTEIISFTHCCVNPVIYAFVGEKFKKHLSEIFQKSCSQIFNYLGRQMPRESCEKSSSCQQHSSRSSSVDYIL

Chain of human chemokine receptor CCR5 (human), P51681 (P51681 whole entry): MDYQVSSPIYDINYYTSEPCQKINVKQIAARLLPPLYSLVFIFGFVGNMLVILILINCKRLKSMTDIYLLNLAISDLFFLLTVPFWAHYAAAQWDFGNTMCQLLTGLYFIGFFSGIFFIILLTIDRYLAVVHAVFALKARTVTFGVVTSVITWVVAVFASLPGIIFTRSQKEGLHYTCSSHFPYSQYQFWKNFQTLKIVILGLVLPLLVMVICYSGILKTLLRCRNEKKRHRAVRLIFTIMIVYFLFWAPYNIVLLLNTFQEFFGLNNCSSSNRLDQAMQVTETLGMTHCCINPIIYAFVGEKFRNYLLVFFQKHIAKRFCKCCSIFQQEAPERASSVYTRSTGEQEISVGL
Chain of chemokine receptor CCR4 (human) (P51679 whole entry): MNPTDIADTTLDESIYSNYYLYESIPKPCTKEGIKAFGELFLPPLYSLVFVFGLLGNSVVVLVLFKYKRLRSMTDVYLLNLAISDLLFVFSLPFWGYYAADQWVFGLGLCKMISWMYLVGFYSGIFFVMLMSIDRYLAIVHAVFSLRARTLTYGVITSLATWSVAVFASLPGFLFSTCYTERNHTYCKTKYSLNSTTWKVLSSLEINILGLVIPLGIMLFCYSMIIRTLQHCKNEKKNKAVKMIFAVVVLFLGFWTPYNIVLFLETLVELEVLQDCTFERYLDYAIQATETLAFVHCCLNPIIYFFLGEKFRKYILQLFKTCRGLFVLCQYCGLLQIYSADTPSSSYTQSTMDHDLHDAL

FICSSPDAELFSEKSRMSSSVLLGCLLCCMDWSAAVPV (modifications not checked) [U83A-Npep, N-terminal spliced truncated form of U83A]
IC50 [1]: 92 nM
IC50 [2]: 8.3 nM
blocking of CCL3 induced calcium flux in CCR1-CHO cells by 100 nM pre-treatment [3]: 50%
blocking of the calcium response to 10 nM U83A in CCR1-CHO cells by 100 nM pre-treatment [3]: 50%
inhibition of HIV-1 YU2 infection at 50 nM [4]: < 50%
reduction of HIV-1 JRCSF infectivity on CEM-NKR-CCR5-luc cells at 5 uM [4]: 90%

B1: CCL22 (ligand, human, UniProt O00626 25-93, looked up)
chain: GPYGANMEDSVCCRDYVRYRLPLRVVKHFYWTSDSCPRPGVVLLTFRDKEICADPRVPWVKMILNKLSQ
chemotaxis of HUT78 cells, concentration of maximal efficacy [5]: 10 nM

B2: CCL1/I309 (ligand, human, UniProt P22362 24-96, looked up)
chain: KSMQVPFSRCCFSFAEQEIPLRAILCYRNTSSICSNEGLIFKLKRGKEACALDTVGWVQRHRKMLRHCPSKRK
EC50, calcium mobilisation in CCR8-CHO cells [6]: 3.87 nM
chemotaxis of HUT78 cells, concentration of maximal efficacy [6]: 1 nM
